In article PMC5467213, “Architecture of the RNA polymerase II-Paf1C-TFIIS transcription elongation complex” (Nature Communications, 2017):

Assays:
[1] = molecular target: T1, Rtf1 (S. cerevisiae, UniProt P53064 1-558); experiment: cross-linking; Pol II-Paf1C-TFIIS EC after SEC, 425 μg/ml, 0.5 mM BS3, 30 min, 30 °C; trypsin, Orbitrap Fusion LC-MS/MS, pLink, FDR 1%; settings: both partners purified
T1 construct: Rtf1, S. cerevisiae, full length, amplified from genomic DNA; source: E. coli BL21 CodonPlus(DE3)RIL, coexpressed with Cdc73; in lysate and purified as part of Paf1C
T1 sequence (P53064 whole entry, the tested form may be a part): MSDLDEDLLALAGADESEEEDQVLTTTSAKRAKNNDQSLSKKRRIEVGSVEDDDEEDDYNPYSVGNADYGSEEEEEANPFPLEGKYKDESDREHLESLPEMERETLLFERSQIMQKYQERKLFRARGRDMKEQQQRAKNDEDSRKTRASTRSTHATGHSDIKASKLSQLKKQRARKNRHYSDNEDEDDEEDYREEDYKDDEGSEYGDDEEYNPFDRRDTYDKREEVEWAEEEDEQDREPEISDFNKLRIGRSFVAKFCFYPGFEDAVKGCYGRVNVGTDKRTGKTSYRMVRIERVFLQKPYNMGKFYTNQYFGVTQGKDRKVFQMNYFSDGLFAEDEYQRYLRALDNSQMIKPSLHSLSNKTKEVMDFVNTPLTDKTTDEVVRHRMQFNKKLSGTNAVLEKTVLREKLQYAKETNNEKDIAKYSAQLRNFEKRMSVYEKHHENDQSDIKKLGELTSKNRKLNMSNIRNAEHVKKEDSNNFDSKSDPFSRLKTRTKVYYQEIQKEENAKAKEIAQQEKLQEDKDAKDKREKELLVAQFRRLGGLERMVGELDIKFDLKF

[2] = molecular target: T2, Rpb2 (Pol II subunit) (yeast, UniProt P08518 1-1224); experiment: as above; settings: both partners purified
T2 construct: Rpb2, subunit of yeast Pol II; source: part of purified Pol II
T2 sequence (P08518 whole entry): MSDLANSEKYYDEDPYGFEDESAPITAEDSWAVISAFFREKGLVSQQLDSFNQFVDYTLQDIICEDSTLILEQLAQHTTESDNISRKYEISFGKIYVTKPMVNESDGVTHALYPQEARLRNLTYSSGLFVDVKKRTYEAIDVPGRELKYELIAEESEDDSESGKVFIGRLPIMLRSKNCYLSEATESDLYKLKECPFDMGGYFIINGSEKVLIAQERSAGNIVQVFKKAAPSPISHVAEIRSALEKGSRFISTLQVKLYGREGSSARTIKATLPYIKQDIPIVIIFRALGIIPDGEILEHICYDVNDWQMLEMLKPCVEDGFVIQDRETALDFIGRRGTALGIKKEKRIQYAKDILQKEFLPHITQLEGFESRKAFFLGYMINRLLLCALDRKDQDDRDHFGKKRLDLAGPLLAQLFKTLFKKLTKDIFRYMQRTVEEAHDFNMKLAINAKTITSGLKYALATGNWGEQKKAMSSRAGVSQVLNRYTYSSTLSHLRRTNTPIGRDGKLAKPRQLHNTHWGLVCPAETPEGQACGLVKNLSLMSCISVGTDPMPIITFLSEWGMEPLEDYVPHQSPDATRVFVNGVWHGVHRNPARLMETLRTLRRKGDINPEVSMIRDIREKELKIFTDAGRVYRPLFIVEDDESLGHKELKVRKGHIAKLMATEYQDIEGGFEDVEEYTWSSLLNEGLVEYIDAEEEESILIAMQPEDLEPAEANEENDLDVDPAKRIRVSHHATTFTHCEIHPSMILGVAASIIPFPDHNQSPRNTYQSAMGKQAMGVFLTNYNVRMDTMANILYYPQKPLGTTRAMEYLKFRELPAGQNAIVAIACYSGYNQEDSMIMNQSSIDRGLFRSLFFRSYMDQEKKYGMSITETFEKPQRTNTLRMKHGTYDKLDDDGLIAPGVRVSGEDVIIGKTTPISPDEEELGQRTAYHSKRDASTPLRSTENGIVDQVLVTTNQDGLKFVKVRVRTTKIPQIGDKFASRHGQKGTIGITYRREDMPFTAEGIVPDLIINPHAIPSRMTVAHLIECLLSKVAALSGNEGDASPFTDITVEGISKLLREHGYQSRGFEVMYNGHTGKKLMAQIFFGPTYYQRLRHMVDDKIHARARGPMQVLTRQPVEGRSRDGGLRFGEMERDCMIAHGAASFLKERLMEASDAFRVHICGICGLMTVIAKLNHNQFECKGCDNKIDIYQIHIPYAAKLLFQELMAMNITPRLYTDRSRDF

[3] = molecular target: T3, Ctr9-ΔC913 (S. cerevisiae, UniProt P89105 1-913); experiment: as above; settings: both partners purified
T3 construct: Ctr9, S. cerevisiae, variant lacking 164 amino acids at its C terminus (Ctr9-ΔC913); also called Ctr9 (in the Pol II-Paf1C-TFIIS EC); source: E. coli BL21 CodonPlus(DE3)RIL, coexpressed with the other subunits; in lysate and purified as part of Paf1C-Ctr9-ΔC913
T3 sequence (looked up): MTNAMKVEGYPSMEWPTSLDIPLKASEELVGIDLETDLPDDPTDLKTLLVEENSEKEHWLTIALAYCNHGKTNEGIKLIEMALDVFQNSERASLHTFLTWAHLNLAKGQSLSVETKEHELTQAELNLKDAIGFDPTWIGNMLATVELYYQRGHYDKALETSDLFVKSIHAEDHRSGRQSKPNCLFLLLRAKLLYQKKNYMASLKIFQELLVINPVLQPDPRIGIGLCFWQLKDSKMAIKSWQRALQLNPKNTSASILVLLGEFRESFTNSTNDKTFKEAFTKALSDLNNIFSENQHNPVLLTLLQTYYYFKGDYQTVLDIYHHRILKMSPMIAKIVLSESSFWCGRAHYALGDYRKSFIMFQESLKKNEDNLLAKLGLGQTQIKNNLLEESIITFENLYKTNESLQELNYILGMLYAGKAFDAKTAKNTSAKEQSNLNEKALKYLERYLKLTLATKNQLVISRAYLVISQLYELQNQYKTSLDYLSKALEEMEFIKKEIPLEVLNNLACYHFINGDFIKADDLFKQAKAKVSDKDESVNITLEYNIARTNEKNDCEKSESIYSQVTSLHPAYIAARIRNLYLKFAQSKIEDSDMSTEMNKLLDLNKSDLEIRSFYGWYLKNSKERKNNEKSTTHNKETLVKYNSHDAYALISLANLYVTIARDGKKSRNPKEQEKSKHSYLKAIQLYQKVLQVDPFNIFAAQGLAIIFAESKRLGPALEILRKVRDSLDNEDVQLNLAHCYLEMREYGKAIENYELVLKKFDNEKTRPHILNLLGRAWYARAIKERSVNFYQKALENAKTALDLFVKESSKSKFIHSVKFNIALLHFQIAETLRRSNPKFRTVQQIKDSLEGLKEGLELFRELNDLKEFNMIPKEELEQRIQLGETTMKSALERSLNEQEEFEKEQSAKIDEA

[4] = molecular target: T4, Leo1 (S. cerevisiae, UniProt P38439 1-464); experiment: as above; settings: both partners purified
T4 construct: Leo1, S. cerevisiae, open reading frame chemically synthesized (codon-optimised), in pCDFDuet-1; source: E. coli BL21 CodonPlus(DE3)RIL, coexpressed with the other subunits; in lysate and purified as part of Paf1C
T4 sequence (looked up): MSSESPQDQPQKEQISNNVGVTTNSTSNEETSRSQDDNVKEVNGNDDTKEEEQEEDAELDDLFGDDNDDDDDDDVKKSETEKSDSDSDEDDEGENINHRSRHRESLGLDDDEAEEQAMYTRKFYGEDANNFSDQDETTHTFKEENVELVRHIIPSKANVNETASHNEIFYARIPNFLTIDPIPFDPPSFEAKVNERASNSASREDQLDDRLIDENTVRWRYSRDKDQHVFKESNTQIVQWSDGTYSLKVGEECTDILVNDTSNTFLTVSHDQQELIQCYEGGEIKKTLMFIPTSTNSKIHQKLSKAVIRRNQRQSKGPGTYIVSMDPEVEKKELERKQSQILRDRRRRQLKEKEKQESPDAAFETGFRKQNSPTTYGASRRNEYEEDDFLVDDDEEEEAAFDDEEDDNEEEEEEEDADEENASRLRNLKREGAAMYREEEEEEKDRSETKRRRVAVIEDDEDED

[5] = molecular target: T5, Ctr9 (full length, C-terminal hexahistidine tag) (S. cerevisiae, UniProt P89105 1-1077); experiment: co-purification after coexpression (Ni-NTA, cation exchange, SEC); subunits coexpressed in E. coli from three vectors, cells colysed; Ni-NTA (hexahistidine tag on Ctr9), HiTrap SP cation exchange, Superose 6 size exclusion; SDS-PAGE, subunits confirmed by mass spectrometry; settings: partners not purified
T5 construct: Ctr9, S. cerevisiae, full length, amplified from genomic DNA, in pET24b; source: E. coli BL21 CodonPlus(DE3)RIL, coexpressed with the other subunits; in lysate and purified as part of Paf1C; not shown: His6, C-terminal, kept
T5 sequence (looked up): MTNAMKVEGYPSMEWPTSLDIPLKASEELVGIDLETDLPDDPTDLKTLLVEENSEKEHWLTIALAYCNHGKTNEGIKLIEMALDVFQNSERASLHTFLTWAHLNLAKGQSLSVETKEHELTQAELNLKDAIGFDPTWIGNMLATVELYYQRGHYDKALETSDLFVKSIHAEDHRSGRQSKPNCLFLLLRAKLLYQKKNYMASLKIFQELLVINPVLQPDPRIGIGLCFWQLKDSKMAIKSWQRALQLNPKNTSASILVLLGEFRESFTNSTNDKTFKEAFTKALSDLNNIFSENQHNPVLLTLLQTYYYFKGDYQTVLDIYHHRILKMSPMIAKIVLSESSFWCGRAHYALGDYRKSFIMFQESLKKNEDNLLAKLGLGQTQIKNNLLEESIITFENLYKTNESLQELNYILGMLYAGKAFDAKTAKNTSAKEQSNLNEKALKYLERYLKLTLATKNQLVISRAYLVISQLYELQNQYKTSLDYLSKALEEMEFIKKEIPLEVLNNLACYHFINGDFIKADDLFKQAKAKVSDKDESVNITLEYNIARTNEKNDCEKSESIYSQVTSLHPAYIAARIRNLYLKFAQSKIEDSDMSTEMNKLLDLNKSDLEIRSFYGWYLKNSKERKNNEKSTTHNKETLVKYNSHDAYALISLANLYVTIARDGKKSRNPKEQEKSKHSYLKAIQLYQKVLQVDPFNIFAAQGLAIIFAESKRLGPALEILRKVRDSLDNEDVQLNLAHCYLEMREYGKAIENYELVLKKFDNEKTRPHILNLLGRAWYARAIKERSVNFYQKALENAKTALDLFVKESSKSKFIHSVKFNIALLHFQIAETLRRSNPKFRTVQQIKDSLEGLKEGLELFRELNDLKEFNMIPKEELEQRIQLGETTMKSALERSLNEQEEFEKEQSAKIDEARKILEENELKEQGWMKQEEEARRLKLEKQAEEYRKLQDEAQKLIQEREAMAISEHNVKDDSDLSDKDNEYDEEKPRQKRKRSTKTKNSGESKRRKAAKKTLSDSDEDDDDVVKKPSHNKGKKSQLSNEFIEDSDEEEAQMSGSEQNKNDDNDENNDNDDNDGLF

Measured: binding result

B1: Paf1 (natural protein, S. cerevisiae, UniProt P38351 1-445, looked up)
chain: MSKKQEYIAPIKYQNSLPVPQLPPKLLVYPESPETNADSSQLINSLYIKTNVTNLIQQDEDLGMPVDLMKFPGLLNKLDSKLLYGFDNVKLDKDDRILLRDPRIDRLTKTDISKVTFLRRTEYVSNTIAAHDNTSLKRKRRLDDGDSDDENLDVNHIISRVEGTFNKTDKWQHPVKKGVKMVKKWDLLPDTASMDQVYFILKFMGSASLDTKEKKSLNTGIFRPVELEEDEWISMYATDHKDSAILENELEKGMDEMDDDSHEGKIYKFKRIRDYDMKQVAEKPMTELAIRLNDKDGIAYYKPLRSKIELRRRRVNDIIKPLVKEHDIDQLNVTLRNPSTKEANIRDKLRMKFDPINFATVDEEDDEDEEQPEDVKKESEGDSKTEGSEQEGENEKDEEIKQEKENEQDEENKQDENRAADTPETSDAVHTEQKPEEEKETLQEE
notes: Paf1, S. cerevisiae, open reading frame chemically synthesized (codon-optimised), in pCDFDuet-1; also called polymerase-associated factor 1; source: E. coli BL21 CodonPlus(DE3)RIL, coexpressed with the other subunits; in lysate and purified as part of Paf1C
binds: all assays above
